Publication PMC3985721
One block for each substance: values may come before it.

How the values were obtained:
Experiment in all cases: native MS
[1] = target: human soluble guanylate cyclase β subunit catalytic domain, wild type, βGC(407–626) (UniProt Q02153)
[2] = target: human soluble guanylate cyclase α subunit catalytic domain, truncated αGC(466–662) (human) (UniProt Q02108)
[3] = target: human soluble guanylate cyclase α subunit catalytic domain, αGC(466–690) (human) (UniProt Q02108)

Sequence of UniProt Q02153 (Q02153 whole entry, looked up, the tested form may be a part): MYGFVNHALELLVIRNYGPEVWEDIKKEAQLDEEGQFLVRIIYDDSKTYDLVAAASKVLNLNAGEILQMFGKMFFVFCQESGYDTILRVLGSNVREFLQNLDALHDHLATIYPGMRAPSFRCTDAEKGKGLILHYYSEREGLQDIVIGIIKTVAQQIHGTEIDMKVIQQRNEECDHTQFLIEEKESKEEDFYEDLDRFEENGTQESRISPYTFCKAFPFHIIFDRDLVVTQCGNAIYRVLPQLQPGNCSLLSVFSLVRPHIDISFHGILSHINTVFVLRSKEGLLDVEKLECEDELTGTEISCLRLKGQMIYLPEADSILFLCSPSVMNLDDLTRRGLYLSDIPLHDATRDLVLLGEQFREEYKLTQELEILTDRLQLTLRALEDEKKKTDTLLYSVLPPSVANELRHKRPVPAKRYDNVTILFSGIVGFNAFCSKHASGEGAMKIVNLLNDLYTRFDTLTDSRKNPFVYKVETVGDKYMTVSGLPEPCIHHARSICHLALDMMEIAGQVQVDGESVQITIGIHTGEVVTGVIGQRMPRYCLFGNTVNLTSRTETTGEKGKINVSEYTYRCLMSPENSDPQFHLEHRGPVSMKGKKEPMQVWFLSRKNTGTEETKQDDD

Substance: human soluble guanylate cyclase α subunit catalytic domain, shorter construct αGC661 (residues 466–661)
relative abundance of the heterodimer (%) [1]: 82.5%

stoichiometry N [2]: 2
Substance: human soluble guanylate cyclase α subunit catalytic domain, truncated αGC(466–662) (from UniProt Q02108 466-662) (domain or fragment)

Substance: human soluble guanylate cyclase α subunit catalytic domain, αGC(466–690) (from UniProt Q02108 466-690) (domain or fragment)
stoichiometry N [3]: 2
